Results on one substance are retold here after PMC9276969.

This assay has as its target V5-tagged L. vannamei STAT (Litopenaeus vannamei). In words: native gel or EMSA; S2 cells co-transfected with pAc5.1-STAT and pAc5.1-PTPN6 or pAc5.1-GFP (control); lysed in Pierce IP Lysis buffer at 48 h; 10% native PAGE, Western blot with antibody against shrimp STAT; dimer and monomer bands. (In general: In EMSA bound probe runs differently from free probe, usually more slowly.)

What is called stoichiometry N is a count of units in the complex or per binding partner.

With “V5-tagged L. vannamei STAT (natural protein)”, the stoichiometry N was 2.
